Paper PMC2688732

Target: C-reactive protein (CRP) (human) (UniProt P02741)
Assay: SPR

Chain of UniProt P02741 (P02741 19-224): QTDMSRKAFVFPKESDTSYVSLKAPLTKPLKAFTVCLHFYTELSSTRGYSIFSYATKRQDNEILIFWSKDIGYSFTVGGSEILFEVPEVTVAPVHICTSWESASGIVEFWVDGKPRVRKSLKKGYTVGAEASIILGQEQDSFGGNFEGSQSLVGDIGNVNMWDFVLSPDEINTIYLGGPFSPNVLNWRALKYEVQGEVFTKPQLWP

## extracellular domain of FcγRIIa (from UniProt P12318 34-204) (receptor)
  Kd: 1900 nM
